Assay results as given in US20200040059A1.
Changes are numbered by the printed parent chain. Names and notes keep the numbering of the source.

B1: variant PD-L2 IgV-Fc H15Q (Fc fusion, not shown: a dimerising Fc or GST; small tags and cut ends)
chain: FTVTVPKELYIIEQGSNVTLECNFDTGSHVNLGAITASLQKVENDTSPHRERATLLEEQLPLGKASFHIPQVQVRDEGQYQCIIIYGVAWDYKYLTLK
B2: variant PD-L2 IgV-Fc H15Q, T47A (Fc fusion, not shown: a dimerising Fc or GST; small tags and cut ends)
chain: B1 chain with T46A
B3: variant PD-L2 IgV-Fc I13V, S67L, Q82R, V89D (Fc fusion, not shown: a dimerising Fc or GST; small tags and cut ends)
chain: B1 chain with I12V, Q14H, S66L, Q81R, V88D
B4: variant PD-L2 IgV-Fc H15Q, V89D (Fc fusion, not shown: a dimerising Fc or GST; small tags and cut ends)
chain: B1 chain with V88D
B5: variant PD-L2 IgV-Fc E44D, S67L, Q72H, Q82R, V89D (Fc fusion, not shown: a dimerising Fc or GST; small tags and cut ends)
chain: B1 chain with Q14H, E43D, S66L, Q71H, Q81R, V88D
B6: variant PD-L2 IgV-Fc I13V, H15Q, Q82R, V89D (Fc fusion, not shown: a dimerising Fc or GST; small tags and cut ends)
chain: B1 chain with I12V, Q81R, V88D
B7: variant PD-L2 IgV-Fc I13V, H15Q, Q82R (Fc fusion, not shown: a dimerising Fc or GST; small tags and cut ends)
chain: B1 chain with I12V, Q81R
B8: variant PD-L2 IgV-Fc I13V, H15Q, V31A, N45S, Q82R, V89D (Fc fusion, not shown: a dimerising Fc or GST; small tags and cut ends)
chain: B1 chain with I12V, V30A, N44S, Q81R, V88D
B9: variant PD-L2 IgV-Fc H15Q, Q72H, Q74R, R76G, I86T (Fc fusion, not shown: a dimerising Fc or GST; small tags and cut ends)
chain: B1 chain with Q71H, Q73R, R75G, I85T
B10: variant PD-L2 IgV-Fc H15Q, V31M, S67L, Q82R, V89D (Fc fusion, not shown: a dimerising Fc or GST; small tags and cut ends)
chain: B1 chain with V30M, S66L, Q81R, V88D
B11: variant PD-L2 IgV-Fc I13V, H15Q, T47A, Q82R (Fc fusion, not shown: a dimerising Fc or GST; small tags and cut ends)
chain: B1 chain with I12V, T46A, Q81R
B12: variant PD-L2 IgV-Fc G28V, Q72H, R76G, I86T (Fc fusion, not shown: a dimerising Fc or GST; small tags and cut ends)
chain: B1 chain with Q14H, G27V, Q71H, R75G, I85T
B13: variant PD-L2 IgV-Fc I13V, H15Q, V89D (Fc fusion, not shown: a dimerising Fc or GST; small tags and cut ends)
chain: B1 chain with I12V, V88D
B14: variant PD-L2 IgV-Fc I13V, H15Q, S39I, E44D, S67L (Fc fusion, not shown: a dimerising Fc or GST; small tags and cut ends)
chain: B1 chain with I12V, S38I, E43D, S66L
B15: variant PD-L2 IgV-Fc N24D (Fc fusion, not shown: a dimerising Fc or GST; small tags and cut ends)
chain: LFTVTVPKELYIIEHGSNVTLECDFDTGSHVNLGAITASLQKVENDTSPHRERATLLEEQLPLGKASFHIPQVQVRDEGQYQCIIIYGVAWDYKYLTLK
B16: variant PD-L2 IgV-Fc S67L, V89D (Fc fusion, not shown: a dimerising Fc or GST; small tags and cut ends)
chain: B15 chain with D24N, S67L, V89D
B17: variant PD-L2 IgV-Fc I13V, E44D, Q82R, V89D (Fc fusion, not shown: a dimerising Fc or GST; small tags and cut ends)
chain: B15 chain with I13V, D24N, E44D, Q82R, V89D
B18: variant PD-L2 IgV-Fc H15Q, T47A, Q72H, R76G (Fc fusion, not shown: a dimerising Fc or GST; small tags and cut ends)
chain: B15 chain with H15Q, D24N, T47A, Q72H, R76G
B19: variant PD-L2 IgV-Fc H15Q, S39I, S67L, V89D (Fc fusion, not shown: a dimerising Fc or GST; small tags and cut ends)
chain: B15 chain with H15Q, D24N, S39I, S67L, V89D
B20: variant PD-L2 IgV-Fc H15Q, E44D, R76G, I85F (Fc fusion, not shown: a dimerising Fc or GST; small tags and cut ends)
chain: B15 chain with H15Q, D24N, E44D, R76G, I85F
B21: variant PD-L2 IgV-Fc I13V, H15Q, T47A, Q72H, R76G (Fc fusion, not shown: a dimerising Fc or GST; small tags and cut ends)
chain: B15 chain with I13V, H15Q, D24N, T47A, Q72H, R76G
B22: variant PD-L2 IgV-Fc H15Q, R76G, I85F (SEQ ID NO 1500) (Fc fusion, not shown: a dimerising Fc or GST; small tags and cut ends)
chain: B15 chain with H15Q, D24N, R76G, I85F
B23: variant PD-L2 IgV-Fc H15Q, S67L, R76G, I85F (Fc fusion, not shown: a dimerising Fc or GST; small tags and cut ends)
chain: B15 chain with H15Q, D24N, S67L, R76G, I85F
B24: variant PD-L2 IgV-Fc E59G, Q82R (Fc fusion, not shown: a dimerising Fc or GST; small tags and cut ends)
chain: B15 chain with D24N, E59G, Q82R
B25: variant PD-L2 IgV-Fc E44D (Fc fusion, not shown: a dimerising Fc or GST; small tags and cut ends)
chain: B15 chain with D24N, E44D
B26: variant PD-L2 IgV-Fc I13V, H15Q, S67L, I86T (Fc fusion, not shown: a dimerising Fc or GST; small tags and cut ends)
chain: B15 chain with I13V, H15Q, D24N, S67L, I86T
B27: variant PD-L2 IgV-Fc H15Q, K65R (Fc fusion, not shown: a dimerising Fc or GST; small tags and cut ends)
chain: B15 chain with H15Q, D24N, K65R
B28: variant PD-L2 IgV-Fc H15Q, T47A, Q72H, R76G, I86T (Fc fusion, not shown: a dimerising Fc or GST; small tags and cut ends)
chain: B15 chain with H15Q, D24N, T47A, Q72H, R76G, I86T
B29: variant PD-L2 IgV-Fc H15Q, Q72H, V89D (Fc fusion, not shown: a dimerising Fc or GST; small tags and cut ends)
chain: B15 chain with H15Q, D24N, Q72H, V89D
B30: variant PD-L2 IgV-Fc H15Q, S67L, Q72H, R76G, V89D (Fc fusion, not shown: a dimerising Fc or GST; small tags and cut ends)
chain: B15 chain with H15Q, D24N, S67L, Q72H, R76G, V89D
B31: variant PD-L2 IgV-Fc S39I, V89D (Fc fusion, not shown: a dimerising Fc or GST; small tags and cut ends)
chain: B15 chain with D24N, S39I, V89D
B32: variant PD-L2 IgV-Fc I13V, S39I, E44D, Q82R, V89D (Fc fusion, not shown: a dimerising Fc or GST; small tags and cut ends)
chain: B15 chain with I13V, D24N, S39I, E44D, Q82R, V89D
B33: variant PD-L2 IgV-Fc I13V, H15Q, E44D, V89D (Fc fusion, not shown: a dimerising Fc or GST; small tags and cut ends)
chain: B15 chain with I13V, H15Q, D24N, E44D, V89D
B34: variant PD-L2 IgV-Fc I13V, Q72H, R76G, I86T (Fc fusion, not shown: a dimerising Fc or GST; small tags and cut ends)
chain: B15 chain with I13V, D24N, Q72H, R76G, I86T
B35: variant PD-L2 IgV-Fc N32D, S67L, V89D (Fc fusion, not shown: a dimerising Fc or GST; small tags and cut ends)
chain: B15 chain with D24N, N32D, S67L, V89D
B36: variant PD-L2 IgV-Fc H15Q, N32D, S67L, V89D (Fc fusion, not shown: a dimerising Fc or GST; small tags and cut ends)
chain: B15 chain with H15Q, D24N, N32D, S67L, V89D
B37: variant PD-L2 IgV-Fc S67L, I85F (Fc fusion, not shown: a dimerising Fc or GST; small tags and cut ends)
chain: B15 chain with D24N, S67L, I85F
B38: variant PD-L2 IgV-Fc Q82R, V89D (Fc fusion, not shown: a dimerising Fc or GST; small tags and cut ends)
chain: B15 chain with D24N, Q82R, V89D
B39: variant PD-L2 IgV-Fc H15Q, S67L, R76G (Fc fusion, not shown: a dimerising Fc or GST; small tags and cut ends)
chain: B15 chain with H15Q, D24N, S67L, R76G
B40: variant PD-L2 IgV-Fc V89D (Fc fusion, not shown: a dimerising Fc or GST; small tags and cut ends)
chain: B15 chain with D24N, V89D
B41: variant PD-L2 IgV-Fc H15Q, T47A, Q82R (Fc fusion, not shown: a dimerising Fc or GST; small tags and cut ends)
chain: B15 chain with H15Q, D24N, T47A, Q82R
B42: variant PD-L2 IgV-Fc S67L, I86T (Fc fusion, not shown: a dimerising Fc or GST; small tags and cut ends)
chain: B15 chain with D24N, S67L, I86T
B43: variant PD-L2 IgV-Fc I13V, H15Q, R76G, I85F (Fc fusion, not shown: a dimerising Fc or GST; small tags and cut ends)
chain: B15 chain with I13V, H15Q, D24N, R76G, I85F

Tests used:
[1] = target: PD-1 (Homo sapiens (Human)) (UniProt Q15116); assay: flow cytometry, Jurkat/PD-1 cells; vs wildtype PD-L2 IgV-Fc
Sequence of PD-1 (Homo sapiens (Human)) (Q15116 21-288 limits assumed): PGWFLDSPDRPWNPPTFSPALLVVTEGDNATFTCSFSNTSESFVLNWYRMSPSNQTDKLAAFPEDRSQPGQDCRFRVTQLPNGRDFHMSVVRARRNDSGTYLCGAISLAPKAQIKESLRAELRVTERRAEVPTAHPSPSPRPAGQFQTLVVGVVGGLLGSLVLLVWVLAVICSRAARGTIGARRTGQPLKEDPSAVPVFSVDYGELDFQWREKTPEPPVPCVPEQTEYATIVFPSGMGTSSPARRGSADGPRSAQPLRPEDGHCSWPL

[2] = target: PD-1 (Homo sapiens (Human)) (UniProt Q15116); assay: flow cytometry, Jurkat/PD-1 cells

Row | Binder | Fold increase over wildtype PD-L2 IgV-Fc [1] | MFI at 50 nM [2]
1 | B1 | 1.63 fold | 16000
2 | B2 | 2.7 fold | 26600
3 | B3 | 5.99 fold | 59000
4 | B4 | 1.8 fold | 17700
5 | B5 | 5.23 fold | 51500
6 | B6 | 5.03 fold | 49500
7 | B7 | 7.74 fold | 76100
8 | B8 | 6.91 fold | 68000
9 | B9 | 0.41 fold | 4050
10 | B10 | 6.85 fold | 67400
11 | B11 | 9.05 fold | 89100
12 | B12 | 0.57 fold | 5560
13 | B13 | 2.92 fold | 28700
14 | B14 | 6.45 fold | 63500
15 | B15 | 0.14 fold | 1410
16 | B16 | 1.62 fold | 16000
17 | B17 | 4.59 fold | 45200
18 | B18 | 1.68 fold | 16500
19 | B19 | 4.62 fold | 45500
20 | B20 | 0.29 fold | 2880
21 | B21 | 7.46 fold | 73400
22 | B22 | 0.3 fold | 2940

Row | Binder | Fold increase over wildtype PD-L2 IgV-Fc [1] | MFI at 50 nM [2]
23 | B23 | 0.29 fold | 2870
24 | B24 | 1.29 fold | 12700
25 | B25 | 0.3 fold | 2930
26 | B26 | 2.19 fold | 21600
27 | B27 | 1.37 fold | 13500
28 | B28 | 3.26 fold | 32100
29 | B29 | 1.28 fold | 12600
30 | B30 | 4.08 fold | 40200
31 | B31 | 2.65 fold | 26100
32 | B32 | 7.26 fold | 71400
33 | B33 | 2.43 fold | 24000
34 | B34 | 1.06 fold | 10400
35 | B35 | 3.23 fold | 31800
36 | B36 | 2.63 fold | 25900
37 | B37 | 0.05 fold | 529
38 | B38 | 4.57 fold | 45000
39 | B39 | 4.8 fold | 47200
40 | B40 | 0.34 fold | 3360
41 | B41 | 6.62 fold | 65200
42 | B42 | 0.69 fold | 6830
43 | B43 | 0.48 fold | 4740
